Assay results from patent US20080008712.

How the values were obtained:
[1] = target: T1, CDC25B1
T1 chain: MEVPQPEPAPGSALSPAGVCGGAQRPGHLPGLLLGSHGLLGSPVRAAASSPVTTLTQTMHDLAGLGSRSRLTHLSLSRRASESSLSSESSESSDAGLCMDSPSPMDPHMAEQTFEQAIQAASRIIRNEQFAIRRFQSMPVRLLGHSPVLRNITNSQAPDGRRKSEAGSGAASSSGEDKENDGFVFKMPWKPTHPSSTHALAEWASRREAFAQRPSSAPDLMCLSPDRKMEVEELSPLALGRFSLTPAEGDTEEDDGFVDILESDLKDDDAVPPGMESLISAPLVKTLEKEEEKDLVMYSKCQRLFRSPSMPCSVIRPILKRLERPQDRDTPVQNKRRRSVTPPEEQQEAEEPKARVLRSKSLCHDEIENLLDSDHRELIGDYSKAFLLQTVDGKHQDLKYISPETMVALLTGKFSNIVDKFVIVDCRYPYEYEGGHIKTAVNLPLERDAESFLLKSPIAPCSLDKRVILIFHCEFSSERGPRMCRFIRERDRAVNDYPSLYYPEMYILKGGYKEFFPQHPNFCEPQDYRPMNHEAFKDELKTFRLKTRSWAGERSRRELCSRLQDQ

[2] = target: T2, CDC25B2
T2 chain: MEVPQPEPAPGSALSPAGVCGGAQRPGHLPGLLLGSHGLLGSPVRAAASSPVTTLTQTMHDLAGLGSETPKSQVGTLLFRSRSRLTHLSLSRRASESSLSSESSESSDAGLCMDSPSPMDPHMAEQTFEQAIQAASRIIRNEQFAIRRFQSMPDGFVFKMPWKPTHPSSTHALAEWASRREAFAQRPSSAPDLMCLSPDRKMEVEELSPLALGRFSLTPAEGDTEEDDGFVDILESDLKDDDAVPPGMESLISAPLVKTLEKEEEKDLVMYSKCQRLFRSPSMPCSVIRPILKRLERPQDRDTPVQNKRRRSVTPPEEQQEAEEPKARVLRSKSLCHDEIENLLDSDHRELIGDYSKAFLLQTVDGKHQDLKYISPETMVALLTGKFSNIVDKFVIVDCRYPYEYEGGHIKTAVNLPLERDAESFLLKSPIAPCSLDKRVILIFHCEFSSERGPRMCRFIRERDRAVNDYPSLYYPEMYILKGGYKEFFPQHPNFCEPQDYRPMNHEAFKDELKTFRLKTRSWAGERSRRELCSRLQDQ

[3] = target: T3, CDC25B3 recombinant protein
T3 chain: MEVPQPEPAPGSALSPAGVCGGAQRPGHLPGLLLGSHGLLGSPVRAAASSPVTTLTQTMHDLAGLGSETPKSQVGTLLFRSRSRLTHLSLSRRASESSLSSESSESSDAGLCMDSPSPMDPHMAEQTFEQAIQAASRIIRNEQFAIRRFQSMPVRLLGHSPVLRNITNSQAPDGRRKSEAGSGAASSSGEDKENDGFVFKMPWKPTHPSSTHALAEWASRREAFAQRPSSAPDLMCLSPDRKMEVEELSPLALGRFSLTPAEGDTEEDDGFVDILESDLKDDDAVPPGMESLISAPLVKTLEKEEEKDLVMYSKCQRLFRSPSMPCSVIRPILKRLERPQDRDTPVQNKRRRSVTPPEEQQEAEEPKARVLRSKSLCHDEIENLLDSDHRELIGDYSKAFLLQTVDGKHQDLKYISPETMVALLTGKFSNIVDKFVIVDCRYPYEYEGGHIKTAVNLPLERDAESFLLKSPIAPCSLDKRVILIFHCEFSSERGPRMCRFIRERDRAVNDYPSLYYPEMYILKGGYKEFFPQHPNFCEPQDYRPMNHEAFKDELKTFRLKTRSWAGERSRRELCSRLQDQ

[4] = target: T4, CDC25B4
T4 chain: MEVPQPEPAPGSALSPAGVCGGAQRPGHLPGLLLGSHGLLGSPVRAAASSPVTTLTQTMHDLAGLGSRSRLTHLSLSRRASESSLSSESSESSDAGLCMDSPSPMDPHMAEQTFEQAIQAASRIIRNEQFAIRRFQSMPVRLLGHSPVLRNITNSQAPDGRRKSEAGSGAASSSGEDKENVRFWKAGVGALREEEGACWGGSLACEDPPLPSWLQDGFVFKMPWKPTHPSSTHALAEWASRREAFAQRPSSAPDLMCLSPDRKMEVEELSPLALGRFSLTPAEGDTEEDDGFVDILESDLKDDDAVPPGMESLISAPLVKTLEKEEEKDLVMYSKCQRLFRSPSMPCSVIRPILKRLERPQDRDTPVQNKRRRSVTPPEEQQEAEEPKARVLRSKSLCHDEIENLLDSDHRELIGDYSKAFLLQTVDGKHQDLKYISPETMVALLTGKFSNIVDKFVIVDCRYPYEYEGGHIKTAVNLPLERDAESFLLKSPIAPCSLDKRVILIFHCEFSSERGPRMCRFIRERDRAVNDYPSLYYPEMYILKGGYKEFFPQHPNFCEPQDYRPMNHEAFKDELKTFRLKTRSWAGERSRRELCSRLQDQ

[5] = target: T5, CDC25B5
T5 chain: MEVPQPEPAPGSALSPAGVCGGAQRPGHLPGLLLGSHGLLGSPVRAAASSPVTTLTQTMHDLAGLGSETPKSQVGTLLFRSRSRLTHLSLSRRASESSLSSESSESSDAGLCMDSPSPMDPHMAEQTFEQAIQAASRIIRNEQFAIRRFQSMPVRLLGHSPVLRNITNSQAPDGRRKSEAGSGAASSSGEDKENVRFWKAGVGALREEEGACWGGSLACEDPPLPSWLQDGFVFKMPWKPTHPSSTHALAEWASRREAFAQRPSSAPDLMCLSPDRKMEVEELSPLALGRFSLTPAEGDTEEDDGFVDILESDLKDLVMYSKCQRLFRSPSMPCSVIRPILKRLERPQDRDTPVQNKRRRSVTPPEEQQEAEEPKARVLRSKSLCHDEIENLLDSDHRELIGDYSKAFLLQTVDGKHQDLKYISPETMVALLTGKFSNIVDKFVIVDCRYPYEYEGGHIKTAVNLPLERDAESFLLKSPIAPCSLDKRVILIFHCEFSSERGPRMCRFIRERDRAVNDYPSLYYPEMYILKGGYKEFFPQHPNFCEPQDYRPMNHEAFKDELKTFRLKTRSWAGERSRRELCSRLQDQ

B1: recombinant Aurora A kinase (protein)
chain: MDRSKENCISGPVKATAPVGGPKRVLVTQQFPCQNPLPVNSGQAQRVLCPSNSSQRIPLQAQKLVSSHKPVQNQKQKQLQATSVPHPVSRPLNNTQKSKQPLPSAPENNPEEELASKQKNEESKKRQWALEDFEIGRPLGKGKFGNVYLAREKQSKFILALKVLFKAQLEKAGVEHQLRREVEIQSHLRHPNILRLYGYFHDATRVYLILEYAPLGTVYRELQKLSKFDEQRTATYITELANALSYCHSKRVIHRDIKPENLLLGSAGELKIADFGWSVHAPSSRRTTLCGTLDYLPPEMIEGRMHDEKVDLWSLGVLCYEFLVGKPPFEANTYQETYKRISRVEFTFPDFVTEGARDLISRLLKHNPSQRPMLREVLEHPWITANSSKPSNCQNKESASKQS
in vitro phosphorylation [1]: the recombinant Aurora A kinase phosphorylates CDC25B1 on the serine 339 | in vitro phosphorylation [2]: CDC25B2 on the serine 312 | in vitro phosphorylation, MS/MS of the tryptic peptide 353-SVTPPEEQQEAEEPK-367 [3]: it is the serine 353 which is phosphorylated by the kinase | in vitro phosphorylation [4]: CDC25B4 on the serine 374 | in vitro phosphorylation [5]: CDC25B5 on the serine 361
